Source: article PMC10767048 (Nature Communications, 2024)

Target: T1, bovine serum albumin (Bos taurus, UniProt P02769)
T1 construct: also called BSA
Assay: ELISA
Conditions: both partners purified

T1 sequence (P02769 25-607): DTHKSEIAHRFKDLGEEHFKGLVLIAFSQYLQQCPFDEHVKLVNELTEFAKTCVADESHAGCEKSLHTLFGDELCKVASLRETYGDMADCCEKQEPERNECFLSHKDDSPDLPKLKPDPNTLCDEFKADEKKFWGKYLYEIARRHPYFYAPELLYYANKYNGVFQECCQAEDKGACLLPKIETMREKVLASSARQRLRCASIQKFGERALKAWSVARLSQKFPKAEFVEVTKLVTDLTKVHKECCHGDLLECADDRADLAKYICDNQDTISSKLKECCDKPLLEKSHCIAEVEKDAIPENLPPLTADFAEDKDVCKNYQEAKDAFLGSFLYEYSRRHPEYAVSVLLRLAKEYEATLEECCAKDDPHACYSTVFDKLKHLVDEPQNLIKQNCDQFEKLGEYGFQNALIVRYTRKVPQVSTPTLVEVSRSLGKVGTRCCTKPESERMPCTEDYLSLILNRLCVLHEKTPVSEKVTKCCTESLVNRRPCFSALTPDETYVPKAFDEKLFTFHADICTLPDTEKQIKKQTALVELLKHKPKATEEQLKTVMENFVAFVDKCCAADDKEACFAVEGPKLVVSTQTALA

B1: nanobody D5 (camel VHH) (VHH)
VHH: AWQLVESGGGSVQPGGSLTLTCQASKSTFSTSGMRWERQAQGKGVEFVADISSDSTRKWYSDSVKGRFTISRSNWWRTVTLQMNDLKPEDTARYYCKDLESHHLRGQGTQVTVSS
notes: source: E. coli HB2151 (pComb3x phagemid), released with polymyxin B, purified (HisTrap)
Question: Does B1 bind?
Answer: no binding (tested: 1 μg/ml)
